Test results as given in patent publication US20230203125A1.

Target: CD47 (UniProt Q08722)
Experiment: cell-based or functional assay

Chain of UniProt Q08722 (Q08722 19-323 limits assumed): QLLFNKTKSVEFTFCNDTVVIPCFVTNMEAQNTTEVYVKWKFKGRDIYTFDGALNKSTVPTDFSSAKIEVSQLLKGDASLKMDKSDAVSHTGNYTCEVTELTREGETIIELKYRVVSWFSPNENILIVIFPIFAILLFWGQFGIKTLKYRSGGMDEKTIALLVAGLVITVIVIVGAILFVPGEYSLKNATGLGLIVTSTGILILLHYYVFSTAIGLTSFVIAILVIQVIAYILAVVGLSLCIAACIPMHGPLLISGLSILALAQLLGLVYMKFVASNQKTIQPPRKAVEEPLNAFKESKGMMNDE

For “SIRPγ fusion protein SIRPγ-CD28TM-CD28 (receptor)”, the Specific Lysis (%) of target cells DLD1-CEA, 24 h, effector-target ratio 1:1 was 45.2%.
